Measured values taken from the nanobody polyreactivity screen of Harvey et al. (2022).

Experiment: yeast display, Sf9 membrane polyspecificity reagent, FACS + sequencing; frameworks hold sequencing errors
Summary of the method: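 Nanobodies from a synthetic yeast display library (Saccharomyces cerevisiae BJ5465), induced 36–48 hours with galactose, were stained 1 hour at 4 °C with 10% biotinylated, detergent-solubilized Sf9 membrane reagent, enriched on streptavidin microbeads, then FACS-sorted. Anti-HA (expression) and streptavidin (reagent binding) fluorescence set low and high (top ~1%) gates. Polyreactivity labels come from the gate of origin. Genes were colony-PCR amplified, MiSeq 2 × 250 sequenced and filtered by CDR length.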

Sequence	polyreactivity (PSR sort gate)
QVQLVESGGGLVQAGGSLRLSCAASGRIFTRNAMGWYRQAPGKERELVAAISRSGGSTYYADSVKGRFTISRDNAKNTVYLQMNSLKPEDTAVYYCAKRGYDNYPFYYWGQGTQVTVSS	high polyreactivity
QVQLVESGGGLVQAGGSLRLSCAASGRIFTRNTMGWYRQAPGKERELVAAITSRGGSTYYADSVKGRFTISRDNAKNTVYLQMNSLKPEDTAVYYCAADKPRSYYYWGQGTQVTVSS	high polyreactivity
QVQLVESGGGLVQAGGSLRLSCAASGRIFTRYALGWYRHADGKVRELVATISRGGNTNYADSVKGRFTISRDNANNTVYLQMTSLKPEDTAVYYCAKYPVSRVGGYGYWGQGTQVTVSS	low polyreactivity
QVQLVESGGGLVQAGGSLRLSCAASGRIFTRYAMGWYRQAPGKERELVATITKSGGSTYYADSVKGRFTISRDNAKNTVYLQMNSLKPEDTAVYYFAADSWWTYQYDYWGQGTQVTVSS	low polyreactivity
QVQLVESGGGLVQAGGSLRLSCAASGRIFTRYTMGWYRQAPGKESELVAAISRSGGSTYYADSVKGRFTISRDNEKNTVYLQMNSLKPEDTAVYYCAAKGPYTYGYGYWGQGTQVTVSS	high polyreactivity
QVQLVESGGGLVQAGGSLRLSCAASGRIFTSNAMGWYRQAPGKEREFVAAITKRGGRTYYADSVKGRFTISRDNAKNTVYLQMNSLLPEDTAVYYCAAGATGTSYYGGDYWGQGTQVTVSS	high polyreactivity
QVQLVESGGGLVQAGGSLRLSCAASGRIFTSNAMGWYSQAPGKERELVAAITKSGGSTYYADSVKGRFTISRDNAKNTVYLQMNSLKPEVTAVYYCSAYPTSRYKYEYWGQGNQVTVSS	high polyreactivity
QVQLVESGGGLVQAGGSLRLSCAASGRIFTSNTMGWNRQAPGKERELGAAITSSGGYMYYADSVKGRFTISRDNAKNTGYLQMNSLKPEDTAVYYCAADTIGYHYWYDYWGQGTQVTVSS	low polyreactivity
QVQLVESGGGLVQAGGSLRLSCAASGRIFTSYAMGWYRQAPGKERELVAAISSGGSTYYADSVKGRFTISRDNAKNTVYLQMNSLKPEDTAVYYCNAQSTRRYYYYWGQGTQVTVSS	high polyreactivity
QVQLVESGGGLVQAGGSLRLSCAASGRIFTTNAMGWYRQAPGKERELVAAITYSGGTTYYADSVKGRFTISRDNAKNTVYLQMNSLKPEDTAVYYCAADVKFSTPYDYWGQGTQVTVSS	low polyreactivity
QVQLVESGGGLVQAGGSLRLSCAASGRIFTTYAMGWYRQAPGKERELVAAISRSGGSTYYADSVKGRFTISRDNAKNTVYLQMTSLNPEDTAVYYCAAVPTSNSFRSSFYYWGQGTQVTVSS	high polyreactivity
QVQLVESGGGLVQAGGSLRLSCAASGRIFTTYAMGWYRQAPGKERELVASISWRVGSTYYADTVKGRFTISRDNAKITVYLQMNSLKPEETAVYYCAAVGGNYHASRLRYYWGQVTQVTVSS	low polyreactivity
QVQLVESGGGLVQAGGSLRLSCAASGRIFTTYVMGCYRQAPGKERELVAAISWSGGNTYYADSVKGRFTISRDNAKNTVYLQMNSLKPEDTAVYYCNAVGTIREGDYWGQGTQVTVSS	low polyreactivity
QVQLVESGGGLVQAGGSLRLSCAASGRIFTWNAMGWYRQAPGKERELVASISRSGTSTYYADSVKGRFTISRDNAKNSVYLQMNSLKAEDTAVYYCAAKRYGYKMYYWGQGTQVTVSS	high polyreactivity
QVQLVESGGGLVQAGGSLRLSCAASGRIFTYAMGWYRQAPGKERELVAAISRRGGSTYYADSVKGRFTISRDNAKNTVYLQMNSLKPEDTAVYYCAKERSFGDGNFDYEYWGQGTQVTVSS	high polyreactivity
QVQLVESGGGLVQAGGSLRLSCAASGRIFTYYAMGWYRQAPGKEREFVAAISRSGGSTYYADSVKGRFTISRDNAKNTVYFQMNSLKPEDTAVYSCAADPPYRGRRGFDHNYWGQGTQVTVSS	high polyreactivity
QVQLVESGGGLVQAGGSLRLSCAASGRIFTYYAMGWYRQAPGKERELVAAINFNSGSTYYADSVKGRFTISRDTAKNTVYLQMNSLKPEDTAVYYCAAVPRRGLPKSYYYWGQGTQVTVSS	high polyreactivity
QVQLVESGGGLVQAGGSLRLSCAASGRIFTYYAMGWYRQAPGKERELVAAITGSGGSTYYADSVKGRFTISRDNAKNTVYLQMNSLKPEDTAVYYCAAYWFTATWYYYWGQGTQVTVSS	high polyreactivity
QVQLVESGGGLVQAGGSLRLSCAASGRIFTYYAMGWYRQAPGKERELVASITGSGGSTDYADSVKGRFTISLDNAKNTVYLQMNSLKPEDTAVYYCAADHSGVSRYDYWGQGTQVTVSS	low polyreactivity
QVQLVESGGGLVQAGGSLRLSCAASGRIFTYYAMGWYRQVPGKERELVAGISGSGTSTYYADSVKGRFTISRDNAKNTVYLQMNSLKPEDTAVYYCAAIRRQKGLWDYYYWGQGTQVTVSS	low polyreactivity
QVQLVESGGGLVQAGGSLRLSCAASGRIFVANAMGWYRPAPGKERELVAAISGRGSRTYYADSVKGRFTISRDNAKNTVYLQMNSLKPEDTAVYYCAVRKNRQYTGDYWGQGTQVTVSS	high polyreactivity
QVQLVESGGGLVQAGGSLRLSCAASGRIFVANAMGWYRQAPGKERELVAAISGRGSRTYYADSVKGRFTISRDNAKNTVYLQMNSLKPEDTAVYYCAARYRYDGRYDYWGQGTQVTVSS	high polyreactivity

Sequence	polyreactivity (PSR sort gate)
QVQLVESGGGLVQAGGSLRLSCAASGRIFVANAMGWYRQAPGKERELVAAISSSGSTNYADSVKGRFTISRDNAKNTVYLQMNSLKPEDTAVYYCAKQHLSTGSWFDPFEMDYWGQGTQVTVSS	low polyreactivity
QVQLVESGGGLVQAGGSLRLSCAASGRIFVFNAMGWYRQAPGKERELVAAITWSGGTTYYADSVKGRFTISRDNAKNTVYLQMNSLKPEDTAVYFCNAYLNRRMGYWGQGTQVTVSS	high polyreactivity
QVQLVESGGGLVQAGGSLRLSCAASGRIFVFNDMGWYRQAPGKERELVAAISSGGNTYYADSVKGRFTISRDNAKNTVYLQMNSLKPEDTAVYYCAKVSRWSYKGSPYDYWGQGTQVTVSS	high polyreactivity
QVQLVESGGGLVQAGGSLRLSCAASGRIFVGNAMGWYRQAPGKERELVAAISRSGGRTYYADSVKGRFTISRDNAKNTVYLQMNSLKPEDTAVYYCYTRVYAGKYDYWGQGTQVTVSS	high polyreactivity
QVQLVESGGGLVQAGGSLRLSCAASGRIFVGYAMGWYRQAPGKERELVAAISRGGSTNYADSVKGRFTISRDNAKNTVYLQMNSLKPDDTAVYYCAKTYRTRWWGNGGDYWGQGTQVTVSS	high polyreactivity
QVQLVESGGGLVQAGGSLRLSCAASGRIFVGYAMGWYRQAPGKVREFFAAITWSGGSTSYADSVKGRFTISRDNAKNTVYLQKNSLKPEDTAVYYCNARRYYYFGLSLYEYDYWGQGTQVTVSS	low polyreactivity
QVQLVESGGGLVQAGGSLRLSCAASGRIFVINAMGWYRQAPGKERELVAAISSSGGSTSYADSVKGRFTISRDNAKNTVYFQMNSLKPEDTAVYYCAAKPRVRRVDGYYWGQGTQVTVSS	high polyreactivity
QVQLVESGGGLVQAGGSLRLSCAASGRIFVINAMGWYRQAPGKERELVAAISSSGGSTSYADSVKGRFTISRDNAKNTVYLQMNSLKPEDTAVYYCAAKPRVRRVDGYYWGQGSQVTVSS	high polyreactivity
QVQLVESGGGLVQAGGSLRLSCAASGRIFVIYAMGWYRQAPGKERELVAVISSDGSTYYADSVKGRFTISRDNAKNTVYLQMNSLKPEDTAVYYCAADRIGRYRPYIGWVVRSYYWGQGTQVTVSS	low polyreactivity
QVQLVESGGGLVQAGGSLRLSCAASGRIFVLYAMGWYRHSPGKERELVAAINWSGGSTFYADSVKGRFTISRDNAKNTVYLQMNSLKPEDTAVYYCNARGLRVKYDYWGQGTQVTVSS	high polyreactivity
QVQLVESGGGLVQAGGSLRLSCAASGRIFVLYAMGWYRQAPGKERELVAAINWSGGSTFYADSVKGRFTISRDNAKNTVYLQMNSLKPEDTAVYYCAADPYFWSALRIGQNDYWGQGTQVTVSS	high polyreactivity
QVQLVESGGGLVQAGGSLRLSCAASGRIFVNNAMGWYRPAPGKERELVAAISKRGGSTYYADSLKGRFTISRDNAMNTVYLHMNSLKPEDTAVYYCAASGYRYPIDGDYWGQGTEVTVSS	high polyreactivity
QVQLVESGGGLVQAGGSLRLSCAASGRIFVNYAMGWYRQAPGKERELVAAITSSGGSTYYADSVKGRFTISRDNAKNTVYLQMNSLKPEDTAVYYCAARWGRGLEFDYWGQGTQVTVSS	high polyreactivity
QVQLVESGGGLVQAGGSLRLSCAASGRIFVPYVMGWYRQAPGKERELVAAISSSGGSTYYADSVKGRFTISRDNAKNTVYLQMNSLKQEDTAVYYCAKPYYFHEEDHWGQGSQVTVSS	low polyreactivity
QVQLVESGGGLVQAGGSLRLSCAASGRIFVPYVMGWYRQAPGKERELVASISDSDTSTYYADSVKGRFTISRDNAKNTVYLQMNCLKPEDTAVYYCNVDYWGQGTQVTVSS	low polyreactivity
QVQLVESGGGLVQAGGSLRLSCAASGRIFVPYVMGWYRQAPGKERELVASISDSDTSTYYADSVKGRFTISRDNAKNTVYLQMNSLKPEDSAVYYCNVDYWGQGTQVTVSS	low polyreactivity
QVQLVESGGGLVQAGGSLRLSCAASGRIFVPYVMGWYRQAPGKERELVASISDSDTSTYYADSVKGRFTISRDNAKNTVYVQMNSLKPEDTAVYYCNVDYWGQGTQVTVSS	low polyreactivity
QVQLVESGGGLVQAGGSLRLSCAASGRIFVQYAMGWYRQAPGKERELVAAISGSGGRTYYADSVKGRFTISRDNAKNTVYLQMNSLKPEDTAVYYCNTARLHGQTQGGDYWGQGTQVTVSS	high polyreactivity
QVQLVESGGGLVQAGGSLRLSCAASGRIFVQYAMGWYRQAPGKERELVAAISGSGGRTYYADSVKGRFTISRDNAKNTVYLQMNSLKPEDTAVYYCNTARRHGQTQGGDYWGQGTQLTVSS	high polyreactivity
QVQLVESGGGLVQAGGSLRLSCAASGRIFVRNAMGWYRQAPGKERELVADITNGGSTNYADSVKGRFTITRDNAKNTVYLQMNSLKPEDTAVYYCAADTLGVYDGDYWGQVTQVTVSS	low polyreactivity
QVQLVESGGGLVQAGGSLRLSCAASGRIFVRYAMGWYRQAPGKERELVAAISWSAGSTYYADSVKGRFTISRDNAKNTVYLQMNSLKPEDTAVYYCAAEYGNYETGHYGIYDYWGQGTQVTVSS	low polyreactivity
